Laboratory results as given in article PMC9127584 (2022).
Values joined by “and” are separate entries in the source; they are usually repeats but may differ in a detail not shown here. Equal entries are not always repeated.

T1: DREB2A (Arabidopsis thaliana (Mouse-ear cress), UniProt O82132)
T1 chain: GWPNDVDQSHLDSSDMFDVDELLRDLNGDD

T2: ANAC013 (Arabidopsis thaliana (Mouse-ear cress), UniProt F4IED2)
T2 chain: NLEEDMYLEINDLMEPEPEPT

T3: ANAC013 254-274 (Arabidopsis thaliana, UniProt F4IED2)
T3 chain: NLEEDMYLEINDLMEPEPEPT

T4: DREB2A 243-272 (Arabidopsis thaliana, UniProt O82132)
T4 chain: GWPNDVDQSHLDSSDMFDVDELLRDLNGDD


Tests used:
[1] = target: DREB2A 243-272 (Arabidopsis thaliana) (UniProt O82132); assay: ITC; details: cited from earlier work
[2] = target: ANAC013 254-274 (Arabidopsis thaliana) (UniProt F4IED2); assay: ITC; details: cited from earlier work
DREB2A = target: T1, DREB2A; assay: ITC 25 C
ANAC013 = target: T2, ANAC013; assay: ITC 25 C
ANAC013 254-274 = target: T3, ANAC013 254-274; assay: ITC
DREB2A 243-272 = target: T4, DREB2A 243-272; assay: ITC

Molecule | Kd (DREB2A) [nM] | Kd [1] [nM] | Kd (ANAC013) [nM] | other results
RCD1 499-572 (from UniProt Q8RY59) |  | 16 |  | Kd [2]: 9 nM
RCD1 RST (from UniProt Q8RY59) |  | 16 |  | 
AtRCD1_RST (protein) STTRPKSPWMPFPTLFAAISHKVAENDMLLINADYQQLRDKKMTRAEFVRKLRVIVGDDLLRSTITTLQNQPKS | 16 |  | 9 | 
AtTAF4 180-254 (protein) NVNPINRNPKQVPFAALLPTLMNQLDKDRALQLRTLYARLKKNEIPKEGFTRHMKDIVGDQMLRMAVSKLQQVNY |  |  |  | Kd (ANAC013 254-274): 1080 nM; Kd (DREB2A 243-272): 740 nM and 1050 nM

Continued, in another order:

Kd (DREB2A) [nM] | Molecule | Kd [1] [nM] | Kd (ANAC013) [nM] | other results
110 | HsTAF4_TAFH (protein) TSSAATETMENVKKCKNFLSTLIKLASSGKQSTETAANVKELVQNLLDGKIEAEDFTSRLYRELNSSPQPYLVPFLKRSLPALRQLTPDSAAFIQQS |  |  | 
740 | AtTAF4_RST (protein) NPINRNPKQVPFAALLPTLMNQLDKDRALQLRTLYARLKKNEIPKEGFTRHMKDIVGDQMLRMAVSKLQQVNY |  | 1080 | 
